Consider one substance from patent US6746859.

Data set [1] deals with T1, Gly-(Asp4)-Lys-βNA fluorogenic enterokinase substrate.
T1 sequence: GDDDDK

The target in data set [2] is T2, E. coli thioredoxin/human IL-11 fusion protein with enterokinase cleavage spacer (UniProt P20809).
T2 sequence: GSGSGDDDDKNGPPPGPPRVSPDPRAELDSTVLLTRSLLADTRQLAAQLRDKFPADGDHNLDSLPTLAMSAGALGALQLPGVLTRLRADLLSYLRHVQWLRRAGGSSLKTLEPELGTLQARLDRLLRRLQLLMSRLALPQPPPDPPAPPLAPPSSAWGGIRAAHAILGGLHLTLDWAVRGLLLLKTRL

For “bovine-derived enterokinase holoenzyme (heavy and light chains)”, the EFFICIENCY OF CLEAVAGE (relative molar activities) (relative molar activity) in data set [1] is 1; with Trypsinogen, 100; in data set [2], 1.
